In patent publication JP2008532476A (dated 2008):

Target: T1, recombinant mouse Tie1-Fc (mouse, UniProt Q06806 23-755)
T1 construct: extracellular domain; also called mouse Tie1-Fc antigen; mouse Tie1-Fc fusion protein; not shown: Fc
T1 sequence (looked up): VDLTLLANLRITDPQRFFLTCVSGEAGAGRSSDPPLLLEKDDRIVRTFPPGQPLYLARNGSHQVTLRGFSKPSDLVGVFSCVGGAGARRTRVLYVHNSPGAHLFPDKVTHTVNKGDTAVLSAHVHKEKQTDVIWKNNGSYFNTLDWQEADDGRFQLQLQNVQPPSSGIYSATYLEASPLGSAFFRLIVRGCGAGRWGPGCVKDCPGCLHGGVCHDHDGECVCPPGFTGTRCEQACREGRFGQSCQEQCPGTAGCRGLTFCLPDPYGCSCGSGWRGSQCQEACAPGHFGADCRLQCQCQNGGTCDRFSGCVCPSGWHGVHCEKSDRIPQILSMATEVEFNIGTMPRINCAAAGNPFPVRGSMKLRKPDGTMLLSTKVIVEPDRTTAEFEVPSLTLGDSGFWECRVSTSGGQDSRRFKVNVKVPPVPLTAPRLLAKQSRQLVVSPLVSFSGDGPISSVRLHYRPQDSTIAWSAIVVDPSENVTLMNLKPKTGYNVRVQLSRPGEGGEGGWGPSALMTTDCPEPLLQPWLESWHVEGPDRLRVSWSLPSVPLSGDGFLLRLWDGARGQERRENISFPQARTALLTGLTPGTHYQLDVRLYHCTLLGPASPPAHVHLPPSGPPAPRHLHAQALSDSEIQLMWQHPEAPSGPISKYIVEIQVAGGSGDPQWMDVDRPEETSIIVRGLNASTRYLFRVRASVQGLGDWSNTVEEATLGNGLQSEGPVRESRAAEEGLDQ
Assay: SPR (BIAcore 3000), Fab as analyte over mouse Tie1-Fc immobilised on a sensor chip

B1: E3b Fab (germline E3 (DX-2220) Fab) (Fab, V domains shown)
VH: EVQLLESGGGLVQPGGSLRLSCAASGFTFSMYGMVWVRQAPGKGLEWVSVISPSGGNTGYADSVKGRFTISRDNSKNTLYLQMNSLRAEDTAVYYCARAPRGYSYGYYYWGQGTLVTVSS
VL: DIQMTQSPSSLSASVGDRVTITCRASQGIGHYLAWYQQKPGKVPKLLIYTASTLQSGVPSRFSGSGSGTDFTLTISSLQPEDVATYYCQQFNSYPHTFGQGTRLEIK
Kd: ~3 nM
